Source: publication PMC2567903, “Repetitive N-WASP–Binding Elements of the Enterohemorrhagic Escherichia coli Effector EspFU Synergistically Activate Actin Assembly” (PLoS Pathogens, 2008)

Target: T1, His6-Flag-tagged human N-WASP (human, UniProt O00401 1-505)
T1 construct: also called His-Flag-N-WASP; N-WASP of the recombinant N-WASP/WIP complex
Assay: SEC
Conditions: partners not purified

T1 sequence (O00401 whole entry): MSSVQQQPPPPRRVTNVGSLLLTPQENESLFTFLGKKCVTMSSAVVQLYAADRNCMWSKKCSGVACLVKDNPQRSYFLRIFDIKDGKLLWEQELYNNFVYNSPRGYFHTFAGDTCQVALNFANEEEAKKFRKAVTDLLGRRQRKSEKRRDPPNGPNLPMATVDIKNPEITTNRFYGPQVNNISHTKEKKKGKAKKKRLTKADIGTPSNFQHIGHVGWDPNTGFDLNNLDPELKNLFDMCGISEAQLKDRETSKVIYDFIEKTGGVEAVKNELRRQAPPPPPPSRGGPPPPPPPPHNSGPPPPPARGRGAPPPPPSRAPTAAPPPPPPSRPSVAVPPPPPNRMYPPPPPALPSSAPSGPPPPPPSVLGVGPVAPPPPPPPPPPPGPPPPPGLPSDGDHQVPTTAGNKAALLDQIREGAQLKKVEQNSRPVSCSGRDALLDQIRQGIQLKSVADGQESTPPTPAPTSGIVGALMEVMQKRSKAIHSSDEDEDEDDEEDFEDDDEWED

B1: His6-Myc-tagged human WIP (natural protein)
chain: not shown
notes: also called His-Myc-WIP
stoichiometry N: 1
